Results from patent US20230321189A1, “THERAPEUTIC AGENTS, PHARMACEUTICAL COMPOSITIONS, AND ASSOCIATED BIOMARKERS BASED ON TRK-B” (INSTITUTO DE MEDICINA MOLECULAR JOÃO LOBO ANTUNES, priority 2020, published 2023).
Entries after “also recorded” stand apart in the source; their conditions may differ. Where no end group is shown, it is not given here.

Legend:
[1] = system: bEnd.3 brain endothelioma cells; experiment: BEB in vitro integrity assay (FD4 probe); type: in vitro ADME; details: FD4 added after each TAT-TrkB translocation assay, 2 h
Experimental: (§1) To evaluate the ability of the TAT-TrkB peptide to translocate the BEB, the inventors used a well-established in vitro model^15. It comprises a transwell system with an insert in which bEnd.3 brain endothelioma cells (ATTCC-CRL-2299, Lot. 59618606) are cultured for 9 days. In this model, the apical chamber replicates the blood compartment, while the basolateral chamber replicates the brain compartment (FIG. 7a). For these experiments, 6-FAM was fused to the N-terminal of the TAT-TrkB peptide, in order to detect the peptide by fluorescence. The TAT-TrkB-6-FAM peptide (5 μM, diluted in DMEM without phenol red) was delivered to the apical compartment. After incubation times of 1 h, 4 h and 24 h, in different inserts, medium from the apical and basolateral compartments was collected and fluorescence measured at 495 nm excitation and 517 nm emission wavelengths using the Varioskan LUX Multimode microplate reader (Thermo Scientific, Rockford, IL, USA ThermoFisher Scientific). Peptide translocation was quantified as the fluorescence detected in the basolateral compartment normalized to the sum of the fluorescence detected in both compartments. […] For these, FD4 fluorescent probe (diluted in DMEM without phenol red to a final absorbance below 0.1) was added to the apical compartment of the same inserts and incubated for 2 h. […]

[2] = system: bEnd.3 brain endothelioma cells; details: TAT-TrkB-6-FAM 5 μM apical; 1 h, 4 h and 24 h
Experimental: as §1

TrkB-FL [3] = target: T1, TrkB-FL (Rattus norvegicus, UniProt Q63604); experiment: Aβ-driven TrkB-FL cleavage in primary neuronal cultures (Western blot); type: cell-based; set-up: Western-blot of neuronal cultures; endogenous in cells; host or cells: primary cortical neuronal cultures from E17-E18 embryos; details: DIV8 neuronal cultures, peptide without linker, 20 μM (1, 5, 20 and 50 μM)
T1 sequence (Q63604 32-821): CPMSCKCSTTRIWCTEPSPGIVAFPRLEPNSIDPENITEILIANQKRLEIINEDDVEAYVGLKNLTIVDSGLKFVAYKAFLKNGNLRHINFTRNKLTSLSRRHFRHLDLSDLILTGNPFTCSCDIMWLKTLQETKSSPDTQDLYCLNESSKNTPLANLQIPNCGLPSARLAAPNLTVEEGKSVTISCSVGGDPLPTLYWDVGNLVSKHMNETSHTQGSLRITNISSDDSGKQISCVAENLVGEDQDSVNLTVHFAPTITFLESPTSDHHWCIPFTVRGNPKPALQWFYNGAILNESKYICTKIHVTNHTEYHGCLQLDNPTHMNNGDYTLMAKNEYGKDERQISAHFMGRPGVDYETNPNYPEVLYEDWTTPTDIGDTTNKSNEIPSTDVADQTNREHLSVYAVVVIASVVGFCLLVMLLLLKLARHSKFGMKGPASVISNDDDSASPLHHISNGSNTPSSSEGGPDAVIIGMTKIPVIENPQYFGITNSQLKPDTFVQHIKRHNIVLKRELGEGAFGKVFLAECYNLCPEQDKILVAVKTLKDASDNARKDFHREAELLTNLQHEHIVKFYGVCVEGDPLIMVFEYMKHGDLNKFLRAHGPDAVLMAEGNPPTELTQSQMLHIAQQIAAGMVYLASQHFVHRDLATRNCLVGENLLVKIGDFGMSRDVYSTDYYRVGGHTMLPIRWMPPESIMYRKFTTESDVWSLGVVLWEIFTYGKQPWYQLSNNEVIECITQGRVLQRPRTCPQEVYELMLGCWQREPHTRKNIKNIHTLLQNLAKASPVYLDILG
Experimental: Primary neuronal cultures were prepared as routinely in the lab^6. Briefly, animals were deeply anesthetized with isoflurane ([…], Barcelona, Spain) in an anaesthesia chamber before being sacrificed by decapitation. Embryos (E17-E18) were rapidly removed from the uterus and brains were dissected and placed in cold Ca^2+- and Mg^2+-free Hank's Balanced Salt Solution (HBSS) (Gibco, Paisley, UK). Cerebral cortex was isolated, mechanically fragmented and digested with 0.025% (wt/vl) trypsin solution (Gibco, Paisley, UK) in HBSS for 15 min at 37° C. After digestion, cells were precipitated by centrifugation at 1200 rpm. The supernatant was removed and 20% Fetal Bovine Serum (FBS) (Gibco, Paisley, UK) was added to HBSS. […] To obtain single cells and avoid cellular clusters or tissue fragments, the suspension was filtered with a nylon filter (BD FalconTM Cell Strainer 70 μM, Thermo Fisher Scientific, Waltham, MA, USA) and cell density was determined by counting cells in a 0.4% trypan blue solution using a hemacytometer. […] Finally, immunoreactivity was detected using the ECL system (ECL chemiluminescence detection system, GE Healthcare), an appropriate exposure time in a ChemiDoc (Bio-Rad, XRS^+) and quantified by the digital densitometry tool of ImageJ 1.45 software (Bethesda, MD, USA). […]

TrkB-FL [4] = target: T1, TrkB-FL; experiment: Calpain in vitro assay, adult rat brain cortex homogenate (Western blot); type: biochemical; set-up: rat cortical tissue or neuronal cultured cells were homogenized in Radio Immuno Precipitation Assay (RIPA) buffer; from tissue; host or cells: adult rat brain cortex homogenate (100 μg protein); details: peptide without linker 20 μM, m-calpain 1 or 2 EU, CaCl2 2 mM
Experimental: For calpain enzymatic assays, rat cortical tissue or neuronal cultured cells were homogenized in Radio Immuno Precipitation Assay (RIPA) buffer, containing 50 mM Tris-HCl [pH=7.5], 150 mM NaCl, 5 mM ethylenediamine tetra-acetic acid, 0.1% sodium dodecyl sulfate (SDS), 1% [v/vl] Triton X-100, protease inhibitors (Roche, Penzberg, Germany) and phosphatase inhibitors (10 mM NaF and 5 mM Na3VO4). For tissue homogenization, Vibracell VC250 Ultrasonic Liquid Processor was used (Sonics & Materials, Inc, CT, USA). Protein concentration was measured using Bio-Rad DC reagent (Bio-Rad Laboratories, Berkeley, CA, USA) after homogenates clarification by centrifugation (16,000 g, 4° C., 10 min). The purified rat m-calpain (1 or 2 enzymatic units, EU) (Calbiochem, San Diego, CA, USA) was incubated for 30 min at 25° C. in a 100 μL final volume of lysis buffer containing the homogenate protein (100 μg for rat brain cortex experiments and 65 μg for neuronal cultured cells), 2 mM of CaCl2 and TAT-TrkB peptide (5, 20 or 50 μM). […] Finally, immunoreactivity was detected using the ECL system (ECL chemiluminescence detection system, GE Healthcare), an appropriate exposure time in a ChemiDoc (Bio-Rad, XRS^+) and quantified by the digital densitometry tool of ImageJ 1.45 software (Bethesda, MD, USA). […]

[5] = listed as TAT-TrkB without a linker sequence

Row | Sequence | BEB integrity (clearance of FD4 from the apical chamber) [1] | translocation of the BEB [2] | TrkB-FL cleavage and TrkB-ICD formation with Aβ incubation (TrkB-FL [3]) | TrkB-FL cleavage and TrkB-ICD formation with Aβ incubation (TrkB-FL [3]; [5]) | TrkB-FL cleavage and TrkB-ICD formation by m-calpain (TrkB-FL [4]) | TrkB-FL cleavage and TrkB-ICD formation by m-calpain (TrkB-FL [4]; [5])
1 | YGRKKRRQRRRKKFGITNSQLKP [TAT-TrkB] | without affecting its integrity; also recorded: negligible | translocated the BEB overtime |  |  |  | 
2 | YGRKKRRQRRRPQYFGITNSQLKPDTF [SEQ ID NO: 25, first version of TAT-TrkB without the linker] |  |  | not able to prevent TrkB-FL cleavage | not prevented | not able to prevent TrkB-FL cleavage | not prevented
